Data as given in patent publication US20250179176A1, “ANTI-TIGIT ANTIBODIES AND USES OF THE SAME” (ARCUS BIOSCIENCES, INC., priority 2022, published 2025).

Assay: Clinical safety of domvanalimab, 99 participants (AB154CSP0001 and ARC-7): TEAEs, related AEs, SAEs
Assay type: in vivo, human

B1: domvanalimab: anti-TIGIT antibody with engineered IgG1 Fc, reduced FcγR binding; heavy chain SEQ ID NO: 12, light chain SEQ ID NO: 13 (antibody)
heavy: EVQLVESGGGLVQPGGSLRLSCAASGFTFSNFGMHWVRQAPGKGLEWVAFISSGSSSIYYADTVKGRFTISRDNAKNSLYLQMNSLRAEDTAVYYCARMRLDYYAMDYWGQGTMVTVSSASTKGPSVFPLAPSSKSTSGGTAALGCLVKDYFPEPVTVSWNSGALTSGVHTFPAVLQSSGLYSLSSVVTVPSSSLGTQTYICNVNHKPSNTKVDKKVEPKSCDKTHTCPPCPAPEAAGGPSVFLFPPKPKDTLMISRTPEVTCWVDVSHEDPEVKFNWYVDGVEVHNAKTKPREEQYNSTYRWSVLTVLHQDWLNGKEYKCKVSNKALPAPIEKTISKAKGQPREPQVYTLPPSRDELTKNQVSLTCLVKGFYPSDIAVEWESNGQPENNYKTTPPVLDSDGSFFLYSKLTVDKSRWQQGNVFSCSVMHEALHNHYTQKSLSLSPGK
light: DIQMTQSPSSLSASVGDRVTITCRASKSISKYLAWYQQKPGKAPKLLIYSGSTLQSGVPSRFSGSGSGTDFTLTISSLQPEDFATYYCQQHNEYPWTFGGGTKVEIKRTVAAPSVFIFPPSDEQLKSGTASWCLLNNFYPREAKVQWKVDNALQSGNSQESVTEQDSKDSTYSLSSTLTLSKADYEKHKVYACEVTHQGLSSPVTKSFNRGEC
- SAE small bowel obstruction, frequency (99 participants): 4.0%
- Domvanalimab-related AE: Abdominal distension (AB154CSP0001 (N = 62)): 1 ( 1.6%)
- Domvanalimab-related AE: Abdominal pain (AB154CSP0001 (N = 62)): 1 ( 1.6%)
- Domvanalimab-related AE: Anaemia (AB154CSP0001 (N = 62)): 1 ( 1.6%)
- Domvanalimab-related AE: Any AEs (AB154CSP0001 (N = 62)): 32 (51.6%)
- Domvanalimab-related AE: Arthralgia (AB154CSP0001 (N = 62)): 1 (1.6%)
- Domvanalimab-related AE: Arthritis (AB154CSP0001 (N = 62)): 1 ( 1.6%)
- Domvanalimab-related AE: Aspartate aminotransferase increased (AB154CSP0001 (N = 62)): 1 ( 1.6%)
- Domvanalimab-related AE: Back pain (AB154CSP0001 (N = 62)): 1 ( 1.6%)
- Domvanalimab-related AE: Constipation (AB154CSP0001 (N = 62)): 1 ( 1.6%)
- Domvanalimab-related AE: Decreased appetite (AB154CSP0001 (N = 62)): 1 (1.6%)
- Domvanalimab-related AE: Diarrhoea (AB154CSP0001 (N = 62)): 3 (4.8%)
- Domvanalimab-related AE: Fatigue (AB154CSP0001 (N = 62)): 4 (6.5%)
- Domvanalimab-related AE: Flank pain (AB154CSP0001 (N = 62)): 1 ( 1.6%)
- Domvanalimab-related AE: Headache (AB154CSP0001 (N = 62)): 3 (4.8%)
- Domvanalimab-related AE: Hot flush (AB154CSP0001 (N = 62)): 1 ( 1.6%)
- Domvanalimab-related AE: Hyperglycaemia (AB154CSP0001 (N = 62)): 1 ( 1.6%)
- Domvanalimab-related AE: Hyperkalaemia (AB154CSP0001 (N = 62)): 1 ( 1.6%)
- Domvanalimab-related AE: Hyperthyroidism (AB154CSP0001 (N = 62)): 2 (3.2%)
- Domvanalimab-related AE: Hypokalaemia (AB154CSP0001 (N = 62)): 1 ( 1.6%)
- Domvanalimab-related AE: Hypothyroidism (AB154CSP0001 (N = 62)): 4 (6.5%)
- Domvanalimab-related AE: Immune-mediated hepatitis (AB154CSP0001 (N = 62)): 2 ( 3.2%)
- Domvanalimab-related AE: Influenza like illness (AB154CSP0001 (N = 62)): 1 ( 1.6%)
- Domvanalimab-related AE: Infusion related reaction (AB154CSP0001 (N = 62)): 1 ( 1.6%)
- Domvanalimab-related AE: Liver function test increased (AB154CSP0001 (N = 62)): 1 ( 1.6%)
- Domvanalimab-related AE: Lymphopenia (AB154CSP0001 (N = 62)): 1 ( 1.6%)
- Domvanalimab-related AE: Muscle spasms (AB154CSP0001 (N = 62)): 1 ( 1.6%)
- Domvanalimab-related AE: Musculoskeletal chest pain (AB154CSP0001 (N = 62)): 1 ( 1.6%)
- Domvanalimab-related AE: Nail disorder (AB154CSP0001 (N = 62)): 1 ( 1.6%)
- Domvanalimab-related AE: Nasal mucosal disorder (AB154CSP0001 (N = 62)): 1 ( 1.6%)
- Domvanalimab-related AE: Nausea (AB154CSP0001 (N = 62)): 5 (8.1%)
- Domvanalimab-related AE: Oral pain (AB154CSP0001 (N = 62)): 1 ( 1.6%)
- Domvanalimab-related AE: Pain (AB154CSP0001 (N = 62)): 2 ( 3.2%)
- Domvanalimab-related AE: Peripheral sensory neuropathy (AB154CSP0001 (N = 62)): 1 ( 1.6%)
- Domvanalimab-related AE: Pneumonitis (AB154CSP0001 (N = 62)): 1 ( 1.6%)
- Domvanalimab-related AE: Pruritus (AB154CSP0001 (N = 62)): 5 (8.1%)
- Domvanalimab-related AE: Pruritus generalised (AB154CSP0001 (N = 62)): 1 ( 1.6%)
- Domvanalimab-related AE: Pulmonary pain (AB154CSP0001 (N = 62)): 1 ( 1.6%)
- Domvanalimab-related AE: Pyrexia (AB154CSP0001 (N = 62)): 3 (4.8%)
- Domvanalimab-related AE: Rash (AB154CSP0001 (N = 62)): 1 (1.6%)
- Domvanalimab-related AE: Rash maculo-papular (AB154CSP0001 (N = 62)): 3 (4.8%)
- Domvanalimab-related AE: Rash pruritic (AB154CSP0001 (N = 62)): 1 ( 1.6%)
- Domvanalimab-related AE: Transaminases increased (AB154CSP0001 (N = 62)): 1 ( 1.6%)
- Domvanalimab-related AE: Tumour flare (AB154CSP0001 (N = 62)): 3 (4.8%)
- Domvanalimab-related AE: Tumour pain (AB154CSP0001 (N = 62)): 1 ( 1.6%)
- Domvanalimab-related AE: Adrenal insufficiency (ARC-7 (N = 37)): 1 ( 2.7%)
- Domvanalimab-related AE: Any AEs (ARC-7 (N = 37)): 18 (48.6%)
- Domvanalimab-related AE: Arthralgia (ARC-7 (N = 37)): 3 (8.1%)
- Domvanalimab-related AE: Asthenia (ARC-7 (N = 37)): 1 ( 2.7%)
- Domvanalimab-related AE: Back pain (ARC-7 (N = 37)): 1 ( 2.7%)
- Domvanalimab-related AE: Constipation (ARC-7 (N = 37)): 1 ( 2.7%)
- Domvanalimab-related AE: Cough (ARC-7 (N = 37)): 1 ( 2.7%)
- Domvanalimab-related AE: Decreased appetite (ARC-7 (N = 37)): 2 (5.4%)
- Domvanalimab-related AE: Delirium (ARC-7 (N = 37)): 1 ( 2.7%)
- Domvanalimab-related AE: Diarrhoea (ARC-7 (N = 37)): 2 (5.4%)
- Domvanalimab-related AE: Dry eye (ARC-7 (N = 37)): 1 ( 2.7%)
- Domvanalimab-related AE: Dry mouth (ARC-7 (N = 37)): 1 ( 2.7%)
- Domvanalimab-related AE: Dyspnoea exertional (ARC-7 (N = 37)): 1 ( 2.7%)
- Domvanalimab-related AE: Fatigue (ARC-7 (N = 37)): 2 (5.4%)
- Domvanalimab-related AE: Generalised oedema (ARC-7 (N = 37)): 1 ( 2.7%)
- Domvanalimab-related AE: Headache (ARC-7 (N = 37)): 1 (2.7%)
- Domvanalimab-related AE: Hyperthyroidism (ARC-7 (N = 37)): 1 (2.7%)
- Domvanalimab-related AE: Infusion related reaction (ARC-7 (N = 37)): 1 ( 2.7%)
- Domvanalimab-related AE: Infusion site pain (ARC-7 (N = 37)): 1 ( 2.7%)
- Domvanalimab-related AE: Malaise (ARC-7 (N = 37)): 2 ( 5.4%)
- Domvanalimab-related AE: Myalgia (ARC-7 (N = 37)): 1 ( 2.7%)
- Domvanalimab-related AE: Nausea (ARC-7 (N = 37)): 1 (2.7%)
- Domvanalimab-related AE: Pancreatitis (ARC-7 (N = 37)): 1 ( 2.7%)
- Domvanalimab-related AE: Paraesthesia (ARC-7 (N = 37)): 1 ( 2.7%)
- Domvanalimab-related AE: Pneumonitis (ARC-7 (N = 37)): 1 ( 2.7%)
- Domvanalimab-related AE: Pruritus (ARC-7 (N = 37)): 4 (10.8%)
- Domvanalimab-related AE: Pyrexia (ARC-7 (N = 37)): 2 (5.4%)
- Domvanalimab-related AE: Rash (ARC-7 (N = 37)): 3 (8.1%)
- Domvanalimab-related AE: Rash maculo-papular (ARC-7 (N = 37)): 3 (8.1%)
- Domvanalimab-related AE: Rhinorrhoea (ARC-7 (N = 37)): 1 ( 2.7%)
